Laboratory results: patent US7696168 (TUFTS MEDICAL CENTER, dated 2010)
The star is where a group is joined. Palmitoyl = CCCCCCCCCCCCCCCC(=O)*

Columns and labels:
PAR1 delta377 mutant = PAR1 delta377 mutant (UniProt P25116)
human PAR1 [1] = target: T1, human PAR1 (human, UniProt P25116 42-425); experiment: cell-based or functional assay
T1 sequence (looked up): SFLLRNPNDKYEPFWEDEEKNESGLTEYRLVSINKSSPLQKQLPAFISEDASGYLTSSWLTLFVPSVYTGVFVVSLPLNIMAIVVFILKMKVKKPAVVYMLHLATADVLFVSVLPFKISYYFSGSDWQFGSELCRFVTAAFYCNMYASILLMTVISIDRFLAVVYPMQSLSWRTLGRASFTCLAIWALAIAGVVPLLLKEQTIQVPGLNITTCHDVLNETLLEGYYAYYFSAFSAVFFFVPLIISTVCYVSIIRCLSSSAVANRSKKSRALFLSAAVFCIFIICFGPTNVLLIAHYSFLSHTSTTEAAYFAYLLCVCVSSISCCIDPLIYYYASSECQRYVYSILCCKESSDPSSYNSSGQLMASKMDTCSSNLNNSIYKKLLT

PAR1 S309P mutant = target: T2, PAR1 S309P mutant (human, UniProt P25116 42-425); experiment: cell-based or functional assay
T2 sequence (looked up): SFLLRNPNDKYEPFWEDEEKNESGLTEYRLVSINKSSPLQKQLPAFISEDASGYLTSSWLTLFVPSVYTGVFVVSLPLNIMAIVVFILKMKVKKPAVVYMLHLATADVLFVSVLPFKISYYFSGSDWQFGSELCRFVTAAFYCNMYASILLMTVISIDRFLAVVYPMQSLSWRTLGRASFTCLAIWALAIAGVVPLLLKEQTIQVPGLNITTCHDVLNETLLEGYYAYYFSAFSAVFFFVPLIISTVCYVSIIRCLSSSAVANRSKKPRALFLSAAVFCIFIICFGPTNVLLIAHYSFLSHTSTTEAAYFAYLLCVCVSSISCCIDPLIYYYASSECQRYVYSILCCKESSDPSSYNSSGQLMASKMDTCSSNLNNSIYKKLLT

human PAR1 [2] = target: T1, human PAR1; experiment: cell-based or functional assay; remark: listed apart in the source
[3] = target: T3, human cholecystokinin B receptor (CCKB) (human, UniProt P32239 1-447); experiment: cell-based or functional assay
T3 sequence (looked up): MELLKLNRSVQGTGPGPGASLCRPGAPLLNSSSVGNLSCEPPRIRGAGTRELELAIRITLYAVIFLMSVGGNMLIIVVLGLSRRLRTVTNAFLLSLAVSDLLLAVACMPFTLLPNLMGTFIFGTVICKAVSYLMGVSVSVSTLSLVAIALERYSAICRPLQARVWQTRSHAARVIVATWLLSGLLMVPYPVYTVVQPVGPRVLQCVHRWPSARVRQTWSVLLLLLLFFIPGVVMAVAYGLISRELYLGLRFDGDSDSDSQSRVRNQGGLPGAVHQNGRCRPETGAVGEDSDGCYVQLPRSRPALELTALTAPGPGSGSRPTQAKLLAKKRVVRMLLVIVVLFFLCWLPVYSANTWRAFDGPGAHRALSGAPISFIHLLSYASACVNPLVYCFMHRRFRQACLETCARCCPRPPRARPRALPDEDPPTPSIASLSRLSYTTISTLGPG

[4] = target: T3, human cholecystokinin B receptor (CCKB); experiment: cell-based or functional assay; remark: listed apart in the source
[5] = target: human glucagon-like peptide-1 receptor (GLP-1R) (human, UniProt P43220 24-463); experiment: cell-based or functional assay
human PAR2 = target: T4, human PAR2 (human, UniProt P55085 37-397); experiment: cell-based or functional assay
T4 sequence (looked up): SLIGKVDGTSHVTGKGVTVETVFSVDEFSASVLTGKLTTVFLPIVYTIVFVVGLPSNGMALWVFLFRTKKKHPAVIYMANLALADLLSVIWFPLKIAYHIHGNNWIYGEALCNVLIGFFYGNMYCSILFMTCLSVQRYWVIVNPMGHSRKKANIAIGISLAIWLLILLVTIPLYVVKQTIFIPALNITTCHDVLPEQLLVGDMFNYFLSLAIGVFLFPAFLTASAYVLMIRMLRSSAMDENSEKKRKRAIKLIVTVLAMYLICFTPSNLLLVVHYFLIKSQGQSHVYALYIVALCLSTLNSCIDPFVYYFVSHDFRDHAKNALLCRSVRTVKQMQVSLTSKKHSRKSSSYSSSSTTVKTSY

thrombin
reduction of efficacy against wild type PAR1 (PLC-beta, InsP) (PAR1 delta377 mutant): Efficacy is reduced by 2-3 fold for the two PAR1 agonists

B1: P1pal-19 (Pal-RCLSSSAVANRSKKSRALF) (peptide)
peptide: Palmitoyl-RCLSSSAVANRSKKSRALF-NH2
SMILES: CCCCCCCCCCCCCCCC(=O)N[C@@H](CCCNC(=N)N)C(=O)N[C@@H](CS)C(=O)N[C@@H](CC(C)C)C(=O)N[C@@H](CO)C(=O)N[C@@H](CO)C(=O)N[C@@H](CO)C(=O)N[C@@H](C)C(=O)N[C@H](C(=O)N[C@@H](C)C(=O)N[C@@H](CC(N)=O)C(=O)N[C@@H](CCCNC(=N)N)C(=O)N[C@@H](CO)C(=O)N[C@@H](CCCCN)C(=O)N[C@@H](CCCCN)C(=O)N[C@@H](CO)C(=O)N[C@@H](CCCNC(=N)N)C(=O)N[C@@H](C)C(=O)N[C@@H](CC(C)C)C(=O)N[C@@H](Cc1ccccc1)C(N)=O)C(C)C
platelet aggregation EC50 (human PAR1 [1]): 8000 nM
loss in efficacy against wild type PAR1 (InsP) (PAR1 S309P mutant): 4.3 fold
loss in potency against wild type PAR1 (InsP) (PAR1 S309P mutant): 13 fold
Agonist EC50 (activating phase, InsP formation) (human PAR1 [2]): 180 nM
Agonist Efficacy (% of full response to extracellular agonist) (human PAR1 [2]): 90%
Agonist IC50 (inhibitory phase, InsP formation) (human PAR1 [2]): 6500 nM

B2: Bpal-18F (Pal-SGSRPTQAKLLAKKRVVF) (peptide)
peptide: Palmitoyl-SGSRPTQAKLLAKKRVVF-NH2
SMILES: CCCCCCCCCCCCCCCC(=O)N[C@@H](CO)C(=O)NCC(=O)N[C@@H](CO)C(=O)N[C@@H](CCCNC(=N)N)C(=O)N1CCC[C@H]1C(=O)N[C@H](C(=O)N[C@@H](CCC(N)=O)C(=O)N[C@@H](C)C(=O)N[C@@H](CCCCN)C(=O)N[C@@H](CC(C)C)C(=O)N[C@@H](CC(C)C)C(=O)N[C@@H](C)C(=O)N[C@@H](CCCCN)C(=O)N[C@@H](CCCCN)C(=O)N[C@@H](CCCNC(=N)N)C(=O)N[C@H](C(=O)N[C@H](C(=O)N[C@@H](Cc1ccccc1)C(N)=O)C(C)C)C(C)C)[C@@H](C)O
improvement of potency against the wild-type CCKB peptide [3]: 15 fold
Agonist EC50 (activating phase, InsP formation) [4]: 100 nM
Agonist Efficacy (% of full response to 300 nM CCK-8) [4]: 13%
Agonist IC50 (inhibitory phase, InsP formation) [4]: 1000 nM

B3: G1pal-15 pepducin (peptide)
peptide: Palmitoyl-ANLMSKTDIKCRLAF-NH2
SMILES: CCCCCCCCCCCCCCCC(=O)N[C@@H](C)C(=O)N[C@@H](CC(N)=O)C(=O)N[C@@H](CC(C)C)C(=O)N[C@@H](CCSC)C(=O)N[C@@H](CO)C(=O)N[C@@H](CCCCN)C(=O)N[C@H](C(=O)N[C@@H](CC(=O)O)C(=O)N[C@H](C(=O)N[C@@H](CCCCN)C(=O)N[C@@H](CS)C(=O)N[C@@H](CCCNC(=N)N)C(=O)N[C@@H](CC(C)C)C(=O)N[C@@H](C)C(=O)N[C@@H](Cc1ccccc1)C(N)=O)[C@@H](C)CC)[C@@H](C)O
cAMP in Cos7 fibroblasts, fold activation at 1 µM pepducin [5]: 1.7 fold

SLIGKV
InsP formation, fold-stimulation by 100 micromolar SLIGKV (P2pal-21 experiment) (human PAR2): 3.1 fold
